{
  "source": "the supplement of paper PMC9112550",
  "about": "“Optimization of the antimicrobial peptide Bac7 by deep mutational scanning” (BMC Biology, 2022);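 also: peptides expressed intracellularly from a pBAD plasmid library in pooled LB shake-flask culture, induced with 0.3% L-arabinose, DNA abundance read by NGS, three biological replicates, DESeq2 with apeglm shrinkage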",
  "data": [
    {"system": "Escherichia coli TOP10", "experiment": "shrunken log2 fold change of peptide-encoding DNA abundance (4.5 h post-induction vs induction); higher = less antimicrobial activity (less host growth inhibition)", "conditions": "time post-induction: 4.5 h; library: site-saturation at positions 5, 18, 19, 20", "values": [
      {"sequence": "RRIRGRPPRLPRPRPRPRCPPRP", "shrunken log2 fold change": 1.4},
      {"sequence": "RRIRGRPPRLPRPRPRPRCSPRP", "shrunken log2 fold change": 0.415},
      {"sequence": "RRIRGRPPRLPRPRPRPRCTPRP", "shrunken log2 fold change": 0.892},
      {"sequence": "RRIRGRPPRLPRPRPRPRCVPRP", "shrunken log2 fold change": 0.689},
      {"sequence": "RRIRGRPPRLPRPRPRPRDMPRP", "shrunken log2 fold change": 0.339},
      {"sequence": "RRIRGRPPRLPRPRPRPRDWPRP", "shrunken log2 fold change": 1.25},
      {"sequence": "RRIRGRPPRLPRPRPRPREKPRP", "shrunken log2 fold change": 0.969},
      {"sequence": "RRIRGRPPRLPRPRPRPRFKPRP", "shrunken log2 fold change": 0.449},
      {"sequence": "RRIRGRPPRLPRPRPRPRGEPRP", "shrunken log2 fold change": 1.04},
      {"sequence": "RRIRGRPPRLPRPRPRPRGFPRP", "shrunken log2 fold change": 0.817},
      {"sequence": "RRIRGRPPRLPRPRPRPRIIPRP", "shrunken log2 fold change": 0.0317},
      {"sequence": "RRIRGRPPRLPRPRPRPRKLPRP", "shrunken log2 fold change": 0.86},
      {"sequence": "RRIRGRPPRLPRPRPRPRLDPRP", "shrunken log2 fold change": 0.692},
      {"sequence": "RRIRGRPPRLPRPRPRPRLGPRP", "shrunken log2 fold change": 0.799},
      {"sequence": "RRIRGRPPRLPRPRPRPRSIPRP", "shrunken log2 fold change": 0.238},
      {"sequence": "RRIRGRPPRLPRPRPRPRSTPRP", "shrunken log2 fold change": 0.978},
      {"sequence": "RRIRGRPPRLPRPRPRPRWFPRP", "shrunken log2 fold change": 0.355},
      {"sequence": "RRIRGRPPRLPRPRPRPRWVPRP", "shrunken log2 fold change": 0.289},
      {"sequence": "RRIRGRPPRLPRPRPRPRYIPRP", "shrunken log2 fold change": -0.222},
      {"sequence": "RRIRGRPPRLPRPRPRPSDCPRP", "shrunken log2 fold change": 0.105},
      {"sequence": "RRIRGRPPRLPRPRPRPSECPRP", "shrunken log2 fold change": 0.519},
      {"sequence": "RRIRGRPPRLPRPRPRPSEGPRP", "shrunken log2 fold change": 0.356},
      {"sequence": "RRIRGRPPRLPRPRPRPSENPRP", "shrunken log2 fold change": 0.359},
      {"sequence": "RRIRGRPPRLPRPRPRPSFHPRP", "shrunken log2 fold change": -0.17},
      {"sequence": "RRIRGRPPRLPRPRPRPSGLPRP", "shrunken log2 fold change": 0.3},
      {"sequence": "RRIRGRPPRLPRPRPRPSGRPRP", "shrunken log2 fold change": 0.522},
      {"sequence": "RRIRGRPPRLPRPRPRPSHRPRP", "shrunken log2 fold change": -0.0458},
      {"sequence": "RRIRGRPPRLPRPRPRPSHSPRP", "shrunken log2 fold change": 0.0319},
      {"sequence": "RRIRGRPPRLPRPRPRPSIRPRP", "shrunken log2 fold change": 0.417},
      {"sequence": "RRIRGRPPRLPRPRPRPSKAPRP", "shrunken log2 fold change": 0.165},
      {"sequence": "RRIRGRPPRLPRPRPRPSMGPRP", "shrunken log2 fold change": 0.34},
      {"sequence": "RRIRGRPPRLPRPRPRPSNQPRP", "shrunken log2 fold change": 0.0776},
      {"sequence": "RRIRGRPPRLPRPRPRPSQYPRP", "shrunken log2 fold change": -0.034},
      {"sequence": "RRIRGRPPRLPRPRPRPSRDPRP", "shrunken log2 fold change": 0.921},
      {"sequence": "RRIRGRPPRLPRPRPRPSRIPRP", "shrunken log2 fold change": -0.234},
      {"sequence": "RRIRGRPPRLPRPRPRPSRKPRP", "shrunken log2 fold change": 0.293},
      {"sequence": "RRIRGRPPRLPRPRPRPSTYPRP", "shrunken log2 fold change": -0.189},
      {"sequence": "RRIRGRPPRLPRPRPRPSWLPRP", "shrunken log2 fold change": 0.519},
      {"sequence": "RRIRGRPPRLPRPRPRPSWWPRP", "shrunken log2 fold change": 0.537},
      {"sequence": "RRIRGRPPRLPRPRPRPSYCPRP", "shrunken log2 fold change": 0.237},
      {"sequence": "RRIRGRPPRLPRPRPRPTAIPRP", "shrunken log2 fold change": 0.974},
      {"sequence": "RRIRGRPPRLPRPRPRPTCPPRP", "shrunken log2 fold change": 0.419},
      {"sequence": "RRIRGRPPRLPRPRPRPTDHPRP", "shrunken log2 fold change": 0.335},
      {"sequence": "RRIRGRPPRLPRPRPRPTESPRP", "shrunken log2 fold change": 0.803},
      {"sequence": "RRIRGRPPRLPRPRPRPTFAPRP", "shrunken log2 fold change": 0.997},
      {"sequence": "RRIRGRPPRLPRPRPRPTGDPRP", "shrunken log2 fold change": 0.782},
      {"sequence": "RRIRGRPPRLPRPRPRPTGQPRP", "shrunken log2 fold change": 0.793},
      {"sequence": "RRIRGRPPRLPRPRPRPTGSPRP", "shrunken log2 fold change": 0.864},
      {"sequence": "RRIRGRPPRLPRPRPRPTIAPRP", "shrunken log2 fold change": 0.895},
      {"sequence": "RRIRGRPPRLPRPRPRPTIRPRP", "shrunken log2 fold change": 0.432},
      {"sequence": "RRIRGRPPRLPRPRPRPTKCPRP", "shrunken log2 fold change": 0.684},
      {"sequence": "RRIRGRPPRLPRPRPRPTKRPRP", "shrunken log2 fold change": 0.533},
      {"sequence": "RRIRGRPPRLPRPRPRPTLIPRP", "shrunken log2 fold change": 0.337},
      {"sequence": "RRIRGRPPRLPRPRPRPTNNPRP", "shrunken log2 fold change": 0.217},
      {"sequence": "RRIRGRPPRLPRPRPRPTPKPRP", "shrunken log2 fold change": 1.2},
      {"sequence": "RRIRGRPPRLPRPRPRPTPTPRP", "shrunken log2 fold change": 0.98},
      {"sequence": "RRIRGRPPRLPRPRPRPTQEPRP", "shrunken log2 fold change": 1.38},
      {"sequence": "RRIRGRPPRLPRPRPRPTQLPRP", "shrunken log2 fold change": 1.02},
      {"sequence": "RRIRGRPPRLPRPRPRPTRCPRP", "shrunken log2 fold change": 0.527},
      {"sequence": "RRIRGRPPRLPRPRPRPTRPPRP", "shrunken log2 fold change": 1.16},
      {"sequence": "RRIRGRPPRLPRPRPRPTSNPRP", "shrunken log2 fold change": 0.659},
      {"sequence": "RRIRGRPPRLPRPRPRPTVHPRP", "shrunken log2 fold change": 1.77},
      {"sequence": "RRIRGRPPRLPRPRPRPTYCPRP", "shrunken log2 fold change": 0.309},
      {"sequence": "RRIRGRPPRLPRPRPRPTYPPRP", "shrunken log2 fold change": 0.0703},
      {"sequence": "RRIRGRPPRLPRPRPRPTYVPRP", "shrunken log2 fold change": -0.144},
      {"sequence": "RRIRGRPPRLPRPRPRPTYYPRP", "shrunken log2 fold change": 0.0798},
      {"sequence": "RRIRGRPPRLPRPRPRPVCKPRP", "shrunken log2 fold change": 0.124},
      {"sequence": "RRIRGRPPRLPRPRPRPVCLPRP", "shrunken log2 fold change": 1.1},
      {"sequence": "RRIRGRPPRLPRPRPRPVDEPRP", "shrunken log2 fold change": 1.05},
      {"sequence": "RRIRGRPPRLPRPRPRPVEYPRP", "shrunken log2 fold change": -0.0779},
      {"sequence": "RRIRGRPPRLPRPRPRPVFGPRP", "shrunken log2 fold change": 0.556},
      {"sequence": "RRIRGRPPRLPRPRPRPVHKPRP", "shrunken log2 fold change": 0.518},
      {"sequence": "RRIRGRPPRLPRPRPRPVIKPRP", "shrunken log2 fold change": 0.0737},
      {"sequence": "RRIRGRPPRLPRPRPRPVIQPRP", "shrunken log2 fold change": 0.0682},
      {"sequence": "RRIRGRPPRLPRPRPRPVITPRP", "shrunken log2 fold change": -0.09}
    ]}
  ]
}
